Assay in all cases: ITC
The target of experiment [1] is T1, linear di-SUMO2 (2×SUMO2-ΔN11) (UniProt P61956 12-95; P61956 12-95).
Experiment [2] concerns the target mono-SUMO1 (UniProt P63165 16-97).
Experiment [3] concerns the target T2, mono-SUMO2 (UniProt P61956 12-93).
Experiment [4] addresses T2, mono-SUMO2. This is another data set of the same source.
Experiment [5] addresses linear tri-SUMO (UniProt P61956 12-95; P61956 12-95; P61956 12-95).
Experiment [6] addresses T1, linear di-SUMO2 (2×SUMO2-ΔN11). This is another data set of the same source.
In experiment [7] the target is T3, linear tetra-SUMO2 (4×SUMO2-ΔN11) (UniProt P61956 12-95; P61956 12-95; P61956 12-95; P61956 12-95).
Experiment [8] deals with T3, linear tetra-SUMO2 (4×SUMO2-ΔN11). This is another data set of the same source.

The text below walks through data of publication PMC3901395 (2013).

Substitutions are numbered along the chain they refer to. Read-outs that look alike come from different tables or passages of the source.

T2 sequence (P61956 12-93): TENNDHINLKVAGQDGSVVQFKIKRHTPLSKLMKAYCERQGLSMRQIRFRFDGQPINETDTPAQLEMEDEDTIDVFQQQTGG
T1 sequence (P61956 other isoform, or with tags, fused parts or gaps mutant): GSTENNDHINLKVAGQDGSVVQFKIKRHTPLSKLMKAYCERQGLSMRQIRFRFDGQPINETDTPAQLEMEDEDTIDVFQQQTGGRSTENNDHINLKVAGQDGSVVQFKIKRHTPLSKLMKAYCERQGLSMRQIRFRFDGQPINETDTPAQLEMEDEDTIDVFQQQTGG
T3 sequence (P61956 other isoform, or with tags, fused parts or gaps mutant): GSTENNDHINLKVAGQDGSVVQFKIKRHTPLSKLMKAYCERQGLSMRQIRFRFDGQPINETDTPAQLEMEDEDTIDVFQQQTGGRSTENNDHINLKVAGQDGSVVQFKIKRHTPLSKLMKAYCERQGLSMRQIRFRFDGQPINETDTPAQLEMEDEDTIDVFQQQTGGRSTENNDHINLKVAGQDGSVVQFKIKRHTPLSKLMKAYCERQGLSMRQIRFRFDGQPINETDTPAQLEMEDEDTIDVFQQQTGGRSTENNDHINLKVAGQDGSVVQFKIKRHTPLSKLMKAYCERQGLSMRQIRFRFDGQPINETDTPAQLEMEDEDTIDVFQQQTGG
Chain of mono-SUMO1 (P63165 16-97): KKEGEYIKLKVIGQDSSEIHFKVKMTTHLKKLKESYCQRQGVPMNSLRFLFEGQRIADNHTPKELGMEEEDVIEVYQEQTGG
Chain of linear tri-SUMO (P61956 other isoform, or with tags, fused parts or gaps): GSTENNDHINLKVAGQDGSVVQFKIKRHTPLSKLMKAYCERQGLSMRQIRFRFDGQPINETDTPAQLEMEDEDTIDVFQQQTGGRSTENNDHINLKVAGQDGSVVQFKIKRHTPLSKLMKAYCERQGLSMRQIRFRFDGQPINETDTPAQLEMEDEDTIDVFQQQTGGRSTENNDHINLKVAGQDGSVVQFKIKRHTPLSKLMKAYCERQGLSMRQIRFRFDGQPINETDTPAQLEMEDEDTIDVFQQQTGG

B1: RNF4-SIM domain SIM4 mutant (domain or fragment)
chain: MSTRKRRGGAINSRQAQKRTREATSTPEISLEAEPIELVETAGDEIVDLTCESLEPVVVDLTHNDSAAAADERRRPRRNARRLPQDHADSCVVSSDDEELSRDRDVYVTTHTPRNARDEGATGLR
Turning to B1, the Kd in experiment [1] stood at 16 µM.

B2: RNF4-SIM domain SIM1/4 double mutant (domain or fragment)
chain: B1 chain with I36A, E37A, L38A, V39A
B2 registered a Kd in experiment [1] of 14 µM.

B3: RNF4 1–125 (RNF4-SIM domain, wt) (domain or fragment)
chain: B1 chain with A67V, A68V, A69I, A70V
B3: the results for the Kd in experiment [2] and in experiment [3] were 123 µM and 145 µM, respectively.

B4: RNF4-SIM2/3 peptide (peptide)
chain: GDEIVDLTCESLEPVVVDLTHND
modifications: exact peptide ends are only in Figure 2A; limits taken as SIM2 and SIM3 (VDLT, VDLT) plus short flanks; end groups unknown
On to B4, for which, in experiment [4], binding was put at a Kd of 106 µM.

B5: full-length RNF4 (natural protein)
chain: MSTRKRRGGAINSRQAQKRTREATSTPEISLEAEPIELVETAGDEIVDLTCESLEPVVVDLTHNDSVVIVDERRRPRRNARRLPQDHADSCVVSSDDEELSRDRDVYVTTHTPRNARDEGATGLRPSGTVSCPICMDGYSEIVQNGRLIVSTECGHVFCSQCLRDSLKNANTCPTCRKKINHKRYHPIYI
Take B5: the Kd in experiment [5] worked out at 1500 nM; in experiment [6], 3.5 µM; in experiment [7], 800 nM.

B6: RNF4-SIM3/4 peptide (peptide)
chain: LEPVVVDLTHNDSVVIVDERR
modifications: exact peptide ends are only in Figure 2A; limits taken as SIM3 and SIM4 (VDLT, VVIV) plus short flanks; end groups unknown
For the molecule B6, the results for the Kd in experiment [1] and in experiment [4] were 72 µM and 61 µM, respectively.

B7: RNF4-SIM1/2 peptide (peptide)
chain: EAEPIELVETAGDEIVDLTCESL
modifications: exact peptide ends are only in Figure 2A; limits taken as SIM1 and SIM2 (IELV, VDLT) plus short flanks; end groups unknown
In the case of B7, the Kd is 44 µM in experiment [1] and 121 µM in experiment [4].

B8: RNF4-SIM domain SIM1/2 double mutant (domain or fragment)
chain: MSTRKRRGGAINSRQAQKRTREATSTPEISLEAEPAAAAETAGDEIAAAACESLEPVVVDLTHNDSVVIVDERRRPRRNARRLPQDHADSCVVSSDDEELSRDRDVYVTTHTPRNARDEGATGLR
For the molecule B8, the affinity in experiment [8], expressed as Kd, was 1600 nM.
